Reference: patent US11629367

Molecular target: Mouse IL-11 receptor alpha (Cat. No. MBS553276, MyBioSource, Inc.) (mouse) (UniProt Q64385)
Assay: cell-based or functional assay

Chain of UniProt Q64385 (Q64385 24-372): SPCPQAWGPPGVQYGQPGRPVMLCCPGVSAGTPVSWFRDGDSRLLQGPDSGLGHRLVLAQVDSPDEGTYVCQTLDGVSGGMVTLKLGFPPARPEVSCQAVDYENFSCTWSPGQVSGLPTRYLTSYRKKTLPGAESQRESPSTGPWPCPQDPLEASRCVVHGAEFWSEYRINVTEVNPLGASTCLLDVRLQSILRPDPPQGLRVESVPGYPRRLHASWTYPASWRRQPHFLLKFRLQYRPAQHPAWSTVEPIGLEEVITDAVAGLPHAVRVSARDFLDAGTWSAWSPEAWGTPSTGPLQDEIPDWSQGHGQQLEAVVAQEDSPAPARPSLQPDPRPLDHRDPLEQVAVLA

Substance | EC50, 7TD1 cell proliferation assay (MTS, absorbance at 490 nM) [ng/mL]
Reference standard of rhIL-11, derived from yeast (Hangzhou Jiuyuan Gene Engineering Company) (from UniProt P20809 23-199) (ligand) | 1.1
recombinant human IL-11 (rhIL-11) expressed in Pichia pastoris and purified by the described method (from UniProt P20809 22-199) (ligand) | 2.2
